In paper PMC10624354 (Science Advances, 2023):

T1: PIF4-NLuc (Arabidopsis, UniProt Q8W2F3 1-430)
T1 sequence (looked up): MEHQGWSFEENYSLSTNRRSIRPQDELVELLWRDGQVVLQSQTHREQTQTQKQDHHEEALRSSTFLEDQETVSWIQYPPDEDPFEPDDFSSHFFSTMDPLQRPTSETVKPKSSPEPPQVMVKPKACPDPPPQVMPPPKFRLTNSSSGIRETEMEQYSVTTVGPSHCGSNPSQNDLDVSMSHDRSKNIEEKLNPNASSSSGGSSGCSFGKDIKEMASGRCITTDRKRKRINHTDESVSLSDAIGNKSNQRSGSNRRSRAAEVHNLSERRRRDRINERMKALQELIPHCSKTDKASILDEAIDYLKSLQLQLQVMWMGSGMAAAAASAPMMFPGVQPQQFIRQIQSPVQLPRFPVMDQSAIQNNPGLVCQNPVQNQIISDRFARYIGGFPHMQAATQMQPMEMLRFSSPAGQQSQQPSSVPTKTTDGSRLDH

B1: HIS-tagged PIF4 (natural protein, Arabidopsis, UniProt Q8W2F3 1-430, looked up)
chain: MEHQGWSFEENYSLSTNRRSIRPQDELVELLWRDGQVVLQSQTHREQTQTQKQDHHEEALRSSTFLEDQETVSWIQYPPDEDPFEPDDFSSHFFSTMDPLQRPTSETVKPKSSPEPPQVMVKPKACPDPPPQVMPPPKFRLTNSSSGIRETEMEQYSVTTVGPSHCGSNPSQNDLDVSMSHDRSKNIEEKLNPNASSSSGGSSGCSFGKDIKEMASGRCITTDRKRKRINHTDESVSLSDAIGNKSNQRSGSNRRSRAAEVHNLSERRRRDRINERMKALQELIPHCSKTDKASILDEAIDYLKSLQLQLQVMWMGSGMAAAAASAPMMFPGVQPQQFIRQIQSPVQLPRFPVMDQSAIQNNPGLVCQNPVQNQIISDRFARYIGGFPHMQAATQMQPMEMLRFSSPAGQQSQQPSSVPTKTTDGSRLDH

Experiments:
[1] = biological target: B1; experiment: pull-down
[2] = biological target: T1, PIF4-NLuc; experiment: split reporter
[3] = biological target: MBP-tagged HSFA1d (Arabidopsis, UniProt Q9LQM7 1-485); experiment: pull-down
Sequence of MBP-tagged HSFA1d (Q9LQM7 whole entry): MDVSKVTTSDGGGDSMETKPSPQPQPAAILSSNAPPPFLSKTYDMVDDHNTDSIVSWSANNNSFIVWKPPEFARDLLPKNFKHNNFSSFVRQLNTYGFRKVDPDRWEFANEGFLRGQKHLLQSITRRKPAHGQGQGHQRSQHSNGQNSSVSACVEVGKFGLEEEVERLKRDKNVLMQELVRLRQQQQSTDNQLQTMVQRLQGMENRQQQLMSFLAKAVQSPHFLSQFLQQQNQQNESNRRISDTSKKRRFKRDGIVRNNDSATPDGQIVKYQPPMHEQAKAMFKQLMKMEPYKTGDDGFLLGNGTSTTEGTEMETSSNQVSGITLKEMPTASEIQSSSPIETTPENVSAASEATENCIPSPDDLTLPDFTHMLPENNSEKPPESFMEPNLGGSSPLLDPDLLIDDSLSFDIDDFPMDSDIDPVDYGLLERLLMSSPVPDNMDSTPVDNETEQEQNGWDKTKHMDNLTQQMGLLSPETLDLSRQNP

binding result [1]	Binder	further results
binds	MBP-HSFA1d-S2 (oligomerization domain HR-A/B and NLS, amino acids 145 to 260) (domain or fragment, Arabidopsis, UniProt Q9LQM7 145-260, looked up) GQNSSVSACVEVGKFGLEEEVERLKRDKNVLMQELVRLRQQQQSTDNQLQTMVQRLQGMENRQQQLMSFLAKAVQSPHFLSQFLQQQNQQNESNRRISDTSKKRRFKRDGIVRNND	
binds	MBP-HSFA1d-S1 (DNA binding domain, amino acids 1 to 144) (domain or fragment) not shown	
	HSFA1d-CLuc (natural protein) not shown	fold increase of luciferase activity at 28°C against 21°C [2]: ~60 fold
	B1	binding result [3]: binds
